Substrate: N[C@@H](Cc1ccccc1)C(=O)O
Assay: Phe consumption by live engineered cells, Michaelis-Menten model
Assay type: cell-based, Photorhabdus laumondii
Conditions: apparent whole-cell pathway value (PheP uptake plus PAL), not purified enzyme; in vitro Phe consumption assays

B1: phenylalanine ammonia lyase (PAL) (Photorhabdus laumondii subsp. laumondii TTO1) (protein)
chain: MKAKDVQPTIIINKNGLISLEDIYDIAIKQKKVEISTEITELLTHGREKLEEKLNSGEVIYGINTGFGGNANLVVPFEKIAEHQQNLLTFLSAGTGDYMSKPCIKASQFTMLLSVCKGWSATRPIVAQAIVDHINHDIVPLVPRYGSVGASGDLIPLSYIARALCGIGKVYYMGAEIDAAEAIKRAGLTPLSLKAKEGLALINGTRVMSGISAITVIKLEKLFKASISAIALAVEALLASHEHYDARIQQVKNHPGQNAVASALRNLLAGSTQVNLLSGVKEQANKACRHQEITQLNDTLQEVYSIRCAPQVLGIVPESLATARKILEREVISANDNPLIDPENGDVLHGGNFMGQYVARTMDALKLDIALIANHLHAIVALMMDNRFSRGLPNSLSPTPGMYQGFKGVQLSQTALVAAIRHDCAASGIHTLATEQYNQDIVSLGLHAAQDVLEMEQKLRNIVSMTILVVCQAIHLRGNISEIAPETAKFYHAVREISSPLITDRALDEDIIRIADAIINDQLPLPEIMLEE
notes: PAL genes inserted in chromosome of host E. coli Nissle 1917 strain SYN5183 (FNR and Ptac promoters), co-expressed with transporter PheP; live cells
Q: How did the Km turn out when B1 was run?
A: The Km was 200 µM.

From article PMC8121789, “Characterization of an engineered live bacterial therapeutic for the treatment of phenylketonuria in a human gut-on-a-chip” (Nature Communications, 2021)
